Experimental data from US20220056142A1 (Sanofi, published 2022).
Numbering of substitutions follows the chain as printed.

T1: N-terminal ECD protein of mouse FGFR3 with a terminal avidin tag (mouse, UniProt Q61851 21-369)
T1 construct: extracellular domain; not shown: terminal avidin tag
T1 sequence (looked up): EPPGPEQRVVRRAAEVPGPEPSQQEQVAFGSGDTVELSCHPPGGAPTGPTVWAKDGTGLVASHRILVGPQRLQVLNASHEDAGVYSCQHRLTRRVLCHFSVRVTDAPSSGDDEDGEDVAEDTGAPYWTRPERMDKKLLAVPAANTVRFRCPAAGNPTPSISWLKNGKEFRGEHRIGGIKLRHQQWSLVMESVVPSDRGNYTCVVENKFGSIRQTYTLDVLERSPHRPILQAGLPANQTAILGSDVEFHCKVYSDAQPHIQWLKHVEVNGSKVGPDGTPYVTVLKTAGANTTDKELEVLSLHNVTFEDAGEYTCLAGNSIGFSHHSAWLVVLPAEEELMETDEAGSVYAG

T2: cynomolgus FGFR3 (cynomolgus)
T2 construct: also called cynoFGFR3
T2 chain: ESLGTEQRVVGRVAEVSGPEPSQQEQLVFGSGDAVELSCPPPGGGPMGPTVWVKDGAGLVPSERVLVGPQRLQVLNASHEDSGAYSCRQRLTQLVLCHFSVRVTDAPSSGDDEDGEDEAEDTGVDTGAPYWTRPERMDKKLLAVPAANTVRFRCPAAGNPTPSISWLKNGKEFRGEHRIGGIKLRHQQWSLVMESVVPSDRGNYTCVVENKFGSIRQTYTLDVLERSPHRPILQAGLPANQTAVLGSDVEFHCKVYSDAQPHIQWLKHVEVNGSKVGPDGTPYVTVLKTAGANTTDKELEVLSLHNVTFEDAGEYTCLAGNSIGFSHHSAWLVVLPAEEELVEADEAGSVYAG

T3: human FGFR3 isoform IIIb (human, UniProt P22607-2 23-377)
T3 construct: Isoform IIIb differs from the canonical IIIc entry in the D3 domain; also called hFGFR3IIIb; FGFR3 IIIb
T3 sequence (looked up): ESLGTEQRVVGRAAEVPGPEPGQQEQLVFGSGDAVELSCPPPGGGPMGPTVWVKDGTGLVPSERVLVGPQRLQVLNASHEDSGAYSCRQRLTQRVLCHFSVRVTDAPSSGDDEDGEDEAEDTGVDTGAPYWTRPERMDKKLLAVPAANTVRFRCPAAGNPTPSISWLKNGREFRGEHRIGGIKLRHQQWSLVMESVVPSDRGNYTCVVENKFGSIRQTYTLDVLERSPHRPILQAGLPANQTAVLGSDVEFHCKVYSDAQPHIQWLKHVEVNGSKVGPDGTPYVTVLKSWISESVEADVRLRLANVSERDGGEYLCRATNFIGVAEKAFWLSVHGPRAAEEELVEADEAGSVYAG

T4: human FGFR3 isoform IIIc (human, UniProt P22607 23-375, limits assumed)
T4 construct: also called hFGFR3IIIc; FGFR3 IIIc
T4 sequence: T2 chain with V13A, S17P, S22G, A57T, L94R, K171R

T5: mouse FGFR3 (mouse, UniProt Q61851 21-369)
T5 construct: extracellular domain; also called mFGFR3
T5 sequence (looked up): T1 sequence (looked up)

T6: human FGFR3 (human, UniProt P22607 23-375)
T6 construct: also called hFGFR3
T6 sequence: T2 chain with V13A, S17P, S22G, A57T, L94R, K171R

B1: KE63 (antibody, V domains shown)
VH: QVQLQQSGAELVRPGASVTLSCKASGSTFSDFEIHWVKQTPVHGLEWIGGIDPETGGTAYNQKFKGKAILTADRSSSTAYMELRSLTSEDSAVYYCTRNYDGYSQTMDYWGQGTSVTVSS
VL: NIMMTQSPSSLAVSAGEKVTMSCKSSQSVLYSSNQKNYLAWYQQKPGQSPKLLIYWASTRESGVPDRFTGSGSGTDFTLTISSVQAEDLAVYYCHQYLSSYTFGGGTKLEMK
notes: Mouse monoclonal antibody from a hybridoma; also called anti-FGFR3 antibody KE63
B2: KC18 (antibody, V domains shown)
VH: B1 VH with S27D, S30T, G50D, K65R, K67R, I69M, N99T, S104P, Q105Y, T106A
VL: DIVMSQSPSSLAVSVGEKVTMSCKSSQSLLYSNNQKNYLAWYQQKPGQSPKLLIYWASTRESGVPDRFTGSGSGTDFTLTISSVKAEDLAVYYCQQYYSYRTFGGGTKLEIK
notes: Mouse monoclonal antibody from a hybridoma; also called anti-FGFR3 antibody KC18; KC18 mouse antibody
B3: KE94 (antibody, V domains shown)
VH: B1 VH with S30T, G50A, D73V, R74K, E82G, Q105R
VL: B1 VL with T78S, T80S, A86T, K108R
notes: Mouse monoclonal antibody from a hybridoma; also called anti-FGFR3 antibody KE94
B4: KE35 (antibody, V domains shown)
VH: EVQLQQSGPELVKPGASVKMSCKASGYTFTDYNMHWVKQSHGKSLEWIGYINPNNGGTRYNQKFKGKATLTVNKSSSTAYMELRSLTSEDSAVYYCARERDYDGAMDYWGQGTSVTVSS
VL: DIQMTQSPSSLSASLGGKVTITCKASQDINKFIAWYQHKPGKGPRLLIHYTSTLQPGIPSRFSGSGSGRDYSFSISNLEPEDIATYYCLQYDNLLWTFGGGTKLEIK
notes: Mouse monoclonal antibody from a hybridoma; also called anti-FGFR3 antibody KE35
B5: KE42 (antibody, V domains shown)
VH: B4 VH with E46Q, R59N, K63N, G66D, S77T, A105S, Y108F
VL: B4 VL with Y87F
notes: Mouse monoclonal antibody from a hybridoma; also called anti-FGFR3 antibody KE42
B6: KE58 (antibody, V domains shown)
VH: EVQLQQSGPDLVKPGASVKISCKASGYTVTDYYMNWVKQSHGKSLEWIGDINPNNGVTTYNQKFKDKATLTVDKSSSTAYMELRSLTSEDSAVYYCAREEDFDGFDYWGQGTTLTVSS
VL: DIVMTQSHKFMSTSVGDRVSITCKASQDVSTGVAWYQQKPGQSPQLLIYWASTRHTGVPDRFTGSGSGTDYILTIRSVQAEDLALYYCQQHYSTPLTFGAGTKLELK
notes: Mouse monoclonal antibody from a hybridoma; also called anti-FGFR3 antibody KE58
B7: KC18_Hu28 (antibody, human IgG1, kappa, V domains shown)
VH: QVQLVQSGAEVVKPGASVKLSCKASGDTFTDFEIHWVKQAPGQGLEWIGDIDPETGGTAYNQKFQGRATLTADRSSSTAYMELSRLRSDDTAVYYCTRTYDGYPYAMDYWGQGTTVTVSS
VL: DIVMTQSPSSLAVSLGERVTMNCKSSQSLLYSNNQKNYLAWYQQKPGQSPKLLIYWASTRESGVPDRFSGSGSGTDFTLTISSVQAEDVAVYYCQQYYSYRTFGGGTKLEIKR
B8: KC18_Hu34 (antibody, human IgG1, kappa, V domains shown)
VH: B7 VH
VL: DIVMTQSPLSLAVTVGEKVSISCRSSQSLLYSNNQKNYLAWYQQKPGQSPKLLIYWGSTRESGVPDRFSGSGSGTDFTLTISRVEAEDVGVYYCQQYYSYRTFGGGTKLEIKR
B9: KC18 (antibody, V domains shown)
VH: B1 VH with S27D, S30T, G50D, K65R, K67R, I69M, N99T, S104P, Q105Y, T106A
VL: B2 VL
notes: Mouse hybridoma antibody; also called parental KC18 antibody
B10: KC18_Hu16 (antibody, human IgG1, kappa, V domains shown)
VH: EVQLVQSGAEVKKPGATVKLSCKASGDTFTDFEIHWVQQAPGKGLEWIGDVDPETGGTAYAEKFQGRATLTADRSTDTAYMELSSLRSEDTAVYYCTRTYDGYPYAMDYWGQGTLVTVSS
VL: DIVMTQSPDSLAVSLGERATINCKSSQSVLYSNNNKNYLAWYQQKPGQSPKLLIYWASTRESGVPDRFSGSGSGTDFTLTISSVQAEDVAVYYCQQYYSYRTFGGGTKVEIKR
B11: KC18_Hu27 (antibody, human IgG1, kappa, V domains shown)
VH: B7 VH with S17T, Q43K, Q62E, S76T, R85S, D89E
VL: B7 VL
B12: KC18_Hu19 (antibody, human IgG1, kappa, V domains shown)
VH: B10 VH with E1Q, K12V, L20I, V51I, A61N, D77S, T97A, L115T
VL: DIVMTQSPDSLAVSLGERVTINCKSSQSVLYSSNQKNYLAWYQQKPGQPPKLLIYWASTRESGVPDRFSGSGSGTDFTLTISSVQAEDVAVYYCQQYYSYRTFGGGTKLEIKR
B13: KC18_Hu18 (antibody, human IgG1, kappa, V domains shown)
VH: B10 VH with M107F
VL: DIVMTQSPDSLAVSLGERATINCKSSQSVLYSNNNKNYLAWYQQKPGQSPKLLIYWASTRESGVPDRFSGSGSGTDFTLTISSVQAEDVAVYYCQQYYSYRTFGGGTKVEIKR
B14: KC18_Hu23 (antibody, human IgG1, kappa, V domains shown)
VH: B10 VH with E1Q, K12V, L20I, V51I, A61N, D77S, T97A, L115T
VL: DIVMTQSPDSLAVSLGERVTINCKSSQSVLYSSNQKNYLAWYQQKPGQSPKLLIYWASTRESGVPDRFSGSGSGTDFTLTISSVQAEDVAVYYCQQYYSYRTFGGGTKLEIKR
B15: KC18_Hu13 (antibody, human IgG1, kappa, V domains shown)
VH: B10 VH with E1Q, T17S, L20V, Q38R, K43Q, V51I, G57S, A59S, E62Q, D77S
VL: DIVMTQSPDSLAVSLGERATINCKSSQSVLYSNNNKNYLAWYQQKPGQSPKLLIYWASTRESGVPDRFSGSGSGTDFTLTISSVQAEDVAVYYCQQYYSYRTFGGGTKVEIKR
B16: KC18_Hu7 (antibody, human IgG1, kappa, V domains shown)
VH: B10 VH with E1Q, T17S, L20V, Q38R, K43Q, V51I, G57S, A59S, E62Q, D77S
VL: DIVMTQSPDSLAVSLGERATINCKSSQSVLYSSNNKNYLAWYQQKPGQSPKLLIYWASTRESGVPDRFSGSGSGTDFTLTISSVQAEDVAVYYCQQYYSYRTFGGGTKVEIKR
B17: KC18_Hu12 (antibody, human IgG1, kappa, V domains shown)
VH: B10 VH with M107F
VL: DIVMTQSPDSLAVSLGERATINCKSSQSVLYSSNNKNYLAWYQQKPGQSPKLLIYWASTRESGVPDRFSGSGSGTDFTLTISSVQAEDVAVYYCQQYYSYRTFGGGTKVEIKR
B18: KC18_Hu10 (antibody, human IgG1, kappa, V domains shown)
VH: B10 VH
VL: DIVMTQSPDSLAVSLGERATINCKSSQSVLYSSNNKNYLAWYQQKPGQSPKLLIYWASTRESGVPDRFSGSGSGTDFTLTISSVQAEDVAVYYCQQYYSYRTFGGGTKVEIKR
B19: KE63 (antibody, V domains shown)
VH: B1 VH
VL: B1 VL
notes: Mouse hybridoma monoclonal antibody

Target: T1, N-terminal ECD protein of mouse FGFR3 …
Experiment: SPR (Biacore), FGFR3 ECD immobilised on chip, antibody injected, 1:1 fit
Description: The N-terminal ECD proteins of FGFR3 from human and mouse were produced with a terminal avidin tag and used in a forward format Biacore assay where proteins were immobilized on a Biacore chip and then the kinetics of antibody interaction with the proteins on the chip were determined. The proteins were immobilized on a Biacore chip for approximately 10,000 response units (RU). Then the antibodies were exposed to the chip for kinetic measurements, following the manufacturer's recommendations (GE Healthcare). Sensorgrams were fit to a 1:1 binding model and analyzed using double-reference subtraction by T200 Evaluation software (GE Healthcare).

| Binder | Kd | koff | kon |
| --- | --- | --- | --- |
| B1 | 6.7 nM | 0.00291 s⁻¹ | 436000 M⁻¹ s⁻¹ |
| B2 | 6.3 nM | 0.0011 s⁻¹ | 174000 M⁻¹ s⁻¹ |
| B3 | 2.1 nM | 0.00148 s⁻¹ | 705000 M⁻¹ s⁻¹ |
| B4 | 1.89 nM | 0.00108 s⁻¹ | 571000 M⁻¹ s⁻¹ |
| B5 | 0.81 nM | 0.0006 s⁻¹ | 739000 M⁻¹ s⁻¹ |
| B6 | 5.5 nM | 0.000918 s⁻¹ | 167000 M⁻¹ s⁻¹ |

Target: T2, cynomolgus FGFR3
Experiment: reactivity grade (Table 2); method not given

| Binder | binding result |
| --- | --- |
| B1 | binds |
| B2 | binds |
| B3 | binds |
| B4 | binds |
| B5 | binds |
| B6 | binds |

Target: T3, human FGFR3 isoform IIIb
Experiment: reactivity grade (Table 2); method not given

| Binder | binding result |
| --- | --- |
| B1 | binds |
| B2 | binds |
| B3 | binds |
| B4 | binds |
| B5 | binds |
| B6 | binds |

Target: T4, human FGFR3 isoform IIIc
Experiment: reactivity grade (Table 2); method not given

| Binder | binding result |
| --- | --- |
| B1 | binds |
| B2 | binds |
| B3 | binds |
| B4 | binds |
| B5 | binds |
| B6 | binds |

Target: T5, mouse FGFR3
Experiment: affinity table; method not restated (Biacore SPR per Example 1)

| Binder | Kd |
| --- | --- |
| B7 | 5.41 nM |
| B8 | 8.14 nM |
| B9 | 3.78 nM |
| B10 | 4.23 nM |
| B11 | 4.6 nM |
| B12 | 3.78 nM |
| B13 | 1.42 nM |
| B14 | 3.35 nM |
| B15 | 5.28 nM |
| B16 | 6.36 nM |
| B17 | 1.73 nM |
| B18 | 5.15 nM |

Target: T6, human FGFR3
Experiment: as above

| Binder | Kd |
| --- | --- |
| B7 | 4.46 nM |
| B8 | 6.85 nM |
| B9 | 2.73 nM |
| B10 | 3.76 nM |
| B11 | 3.9 nM |
| B12 | 2.99 nM |
| B13 | 1.25 nM |
| B14 | 2.68 nM |
| B15 | 4.52 nM |
| B16 | 5.41 nM |
| B17 | 1.61 nM |
| B18 | 4.73 nM |

Target: T7, wild-type human FGFR3 isoform IIIc, full length, expressed on transfected cells (human, UniProt P22607 23-806)
T7 construct: also called wild-type FGFR3; FGFR3-300.19
Experiment: FACS, cells transfected with wild-type FGFR3
Description: (§1) After three washes, the cells were incubated with a fluorescent-conjugated secondary antibody (Invitrogen).

| Binder | binding result |
| --- | --- |
| B19 | binds |

Target: T8, human FGFR3 G380R isoform IIIc, full length, expressed on transfected cells (human, UniProt P22607 23-806)
T8 construct: also called mutant FGFR3; FGFR3^G380R-300.19
Experiment: FACS, cells transfected with mutant FGFR3 (G380R)
Description: as §1

| Binder | binding result |
| --- | --- |
| B19 | binds |
